The text below walks through data of publication doi:10.1101/2023.08.25.554718, “Structural mechanism of synergistic targeting of the CX3CR1 nucleosome by PU.1 and C/EBPα”.

In one data set the target is PU.1 ETS Q218H (mouse, UniProt P17433 165-272, Q218H). The experiment in a line: EMSA; little effect of Q218H; EMSA: 20 mM HEPES pH 7.3, 150 mM NaCl, 0.5 mM TCEP, 30 min room temperature, 0.5 uM nucleosome or DNA; FRET: 20 mM HEPES pH 7.1, 100 mM NaCl, 0.5 mM TCEP, 200 n.
The next data set addresses PU.1 ETS (ETSPU.1) (mouse, UniProt P17433 165-272). The experiment in a line: EMSA; EMSA: 20 mM HEPES pH 7.3, 150 mM NaCl, 0.5 mM TCEP, 30 min room temperature, 0.5 uM nucleosome or DNA; FRET: 20 mM HEPES pH 7.1, 100 mM NaCl, 0.5 mM TCEP, 200 n. (In general: In EMSA bound probe runs differently from free probe, usually more slowly.)
In another data set the target is PU.1 full-length (mouse, UniProt P17433 1-272). The experiment in a line: EMSA; EMSA: 20 mM HEPES pH 7.3, 150 mM NaCl, 0.5 mM TCEP, 30 min room temperature, 0.5 uM nucleosome or DNA; FRET: 20 mM HEPES pH 7.1, 100 mM NaCl, 0.5 mM TCEP, 200 nM nucleosome. The conditions noted are these: protein: recombinant; tags: N-terminal His.
The next data set has as its target MBP-DBD C/EBPalpha (UniProt P53566 214-359). The experiment in a line: EMSA; 5 uM DNA; MBP fusion assumed; EMSA: 20 mM HEPES pH 7.3, 150 mM NaCl, 0.5 mM TCEP, 30 min room temperature, 0.5 uM nucleosome or DNA; FRET: 20 mM HEPES pH 7.1, 100 mM NaCl, 0.5 mM TCEP, 200 nM nucleosome. Conditions: protein: recombinant; tags: N-terminal MBP; chain copies: 2; blunt.

Sequence of MBP-DBD C/EBPalpha (P53566 214-359): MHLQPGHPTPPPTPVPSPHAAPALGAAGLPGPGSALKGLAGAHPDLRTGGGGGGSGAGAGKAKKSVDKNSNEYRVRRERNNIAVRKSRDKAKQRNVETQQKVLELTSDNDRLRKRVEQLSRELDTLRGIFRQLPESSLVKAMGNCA

B1: 162 bp CX3CR1 DNA (dsDNA)
DNA 1: TAGGTGCAGGGCCTCTCGGCTGCTGATCTTCAGCTGGTTGCTGAGAGTTGCAGCATTGCTGAGTCTTAGCAATGGATACTTCCCGATTCCCCTCACAAAAATAGGTCAGTCTGTCTGGCTAGTTCTGTACTTGCAGACACAGGGCATGTGGGGTTCCTATTT
DNA 2: AAATAGGAACCCCACATGCCCTGTGTCTGCAAGTACAGAACTAGCCAGACAGACTGACCTATTTTTGTGAGGGGAATCGGGAAGTATCCATTGCTAAGACTCAGCAATGCTGCAACTCTCAGCAACCAGCTGAAGATCAGCAGCCGAGAGGCCCTGCACCTA
Consider B1, for which the binding result with PU.1 ETS Q218H, in the data set with PU.1 ETS (ETSPU.1) and in the data set with PU.1 full-length was “binds” in each case.

B2: 20 bp C/EBPalpha site DNA (dsDNA)
DNA 1: ATCTTCAGCTGGTTGCTGAG
DNA 2: CTCAGCAACCAGCTGAAGAT
In the case of B2, in the data set with MBP-DBD C/EBPalpha, the binding result is recorded as “binds”.
